Experimental data as given in US12043671B2, “Antibodies targeting an amphiregulin-derived cell surface neo-epitope” (Gundersen Lutheran Medical Foundation, Inc., priority 2021, dated 2024).

Experiments:
MCF7 xenografts = experiment: Orthotopic MCF7 breast cancer xenograft in NSG mice; type: in vivo, mouse
Source text: (§1) In Vivo Antitumor Activity Studies: The animal experiments were approved by the Institutional Animal Care and Use Committee of University of Wisconsin La Crosse (La Crosse, Wisconsin, USA). Four-week-old female NOD.Cg-Prkdc^scid II2rg^tm1Wjl/SzJ mice (NSG; The Jackson Laboratory) were acclimated for 1 week before the experiments. For MCF7 breast cancer xenograft model, the mice were implanted subcutaneously with 0.72-mg 17β-estradiol 90-day release tablets (Innovative Research of America) 3 days prior to cell injection. […] Firefly luciferase expressing MCF7 and MCF7-F cells (2×10^6 cells in a 1:1 mixture of serum-free DMEM and Matrigel) were injected orthotopically into the fourth inguinal mammary fat pad of each mouse. Once the tumors were well established, each cell line cohort was divided into three groups (n=5). Mean tumor volume at the start of treatment was 111 mm^3 for the MCF7 cohorts and 119 mm^3 for the MCF7-F cohorts. The mice were treated by intraperitoneal injection every 4 days for a total of six doses with unconjugated or MMAE conjugated anti-cleaved-AREG 1A3 antibody (5 mg/kg), or vehicle control (PBS). Tumor volumes were calculated from caliper data by using the formula: Volume (mm^3)=(Length×Width^2)/2. Mice were imaged weekly with the in vivo FX PRO imaging system (Carestream Molecular Imaging, Woodbridge, CA, USA) after injecting luciferin (150 mg/kg body weight). Tumor volume and body weight were monitored once a week. Statistical Analysis:
(§2) To test in vivo efficacy of 1A3-MMAE, human breast cancer cell lines expressing luciferase were injected orthotopically into NSG mice (one tumor in each inguinal mammary gland). Once the average tumor size reached approximately 100-125 mm^3, mice were randomized to one of three treatment groups: PBS, 1A3 (5 mg/kg) or 1A3-MMAE (5 mg/kg). Mice received intraperitoneal injections every 4 days for six total injections and were monitored for tumor progression or regression. Similar experiments were performed with MCF7 (FIGS. 5A, 5B, and 5C, left panels) and MCF7-F (FIGS. 5A, 5B, and 5C, right panels) xenografts.

[1] = biological target: T1, Trunc AREG (fragment that remains cell-bound after cleavage by ADAM17) (Homo sapiens, UniProt P15514); experiment: Immunoblot of TRF-conjugated AREG peptides, cleaved mimic; type: binding; details: 1 μg/mL antibody, 200 ng TRF-conjugated peptide
T1 construct: host or cells: synthetic peptide conjugated to transferrin
Description: (§3) Monomethyl auristatin E (MMAE) conjugated 1A3 antibody (1A3-VC-PAB-MMAE) was prepared using a kit (CM11409) from CellMosaic Inc. (Woburn, MA, USA) following the manufacturer's instructions. Maleimide-activated valine-citrulline p-aminobenzylcarbamate (VCPAB) MMAE was coupled directly to the antibody after reduction through alkylation.^13 The specificity of 1A3 and 1A3-VC-PAB-MMAE to peptides representing human cleaved-AREG was confirmed by immunoblotting. Briefly, transferrin (TRF) conjugated peptides representing cleaved and uncleaved AREG (200 ng) were electrophoresed on SDS-PAGE gels, transferred to PVDF membrane and probed with 1 μg/mL of 1A3 and 1A3-VC-PAB-MMAE. Horseradish peroxidase-conjugated goat anti-rabbit IgG was used. Antibody binding was detected with enhanced chemiluminescence (ECL; Amersham, Arlington Heights, IL, USA). Furthermore, the characterization and purity of 1A3-VC-PAB-MMAE were analyzed using hydrophobic interaction chromatography (HIC) and size-exclusion chromatography (Cell Mosaic).

MCF-7 cells = experiment: Tubulin staining (microtubule integrity); type: cell-based, human; details: 48 h treatment
Description: FIGS. 4A-4E. In vitro 1A3-MMAE cytotoxicity in MCF-7 (FIG. 4A) and MCF-7F (FIG. 4B) cells measured by MTT assay after treatment with 1A3-MMAE, 1A3 or MMAE. FIG. 4C: Clonogenic growth of MCF-7 or MCF-7F cells after exposure to 1A3-MMAE and replating. FIG. 4D: The quantification of clonogenic growth assays in FIG. 4C. (FIG. 4E). Tubulin staining of MCF-7 cells after 48 h treatment with MMAE, 1A3, 1A3-MMAE (40× magnification).

MCF7 cells = experiment: Clonogenic assay; type: cell-based, human; details: MCF7, 25 or 50 nM, 72 h then 14 days
Description: (§4) MCF7 breast cancer cells were plated in 48-well plates, allowed to attach overnight and treated with 12.5, 25 or 50 nM of 1A3-VC-PAB-MMAE for 72 h. A vehicle treated well served as control. After removing the ADC-containing medium, cells were washed using PBS, trypsinized and plated at a density of 1000 cells/well in 12-well plates. The cells were cultured for 14 days, with fresh medium addition every 3 days. The colonies were stained with 0.5% crystal violet solution. The number of colonies per well was counted.

MCF7-F cells = experiment: Clonogenic assay; type: cell-based, human; details: 25 or 50 nM, 72 h then 14 days
Description: as §4

MCF7 breast cancer cells = experiment: MTT cytotoxicity assay; details: MCF7, 1.56-200 nM, 72 h
Description: (§5) The cells were seeded at a density of 5000 cells/well in 96-well plates. Approximately 24 h after cell seeding, the cells were treated with varying doses (1.56, 3.125, 6.25, 12.5, 25, 50, 100 and 200 nM) of MMAE, 1A3 and 1A3-VC-PAB-MMAE. Untreated cells were used as control. After incubating for 72 h, the medium was aspirated and 50 μL of serum-free media and 50 μL of MTT solution (5 mg/mL solution in PBS) was added into each well; the cells were then incubated for 3 h at 37° C. The formazan crystals formed were dissolved with 4 mM HCl, 0.1% NP40 in isopropanol. The absorbance was measured at 590 nm using VersaMax Microplate Reader (Molecular Devices LLC, San Jose, California, USA). The assays were performed in triplicate.

cleaved-AREG peptide = biological target: T2, cleaved-AREG peptide (Homo sapiens, UniProt P15514); experiment: ELISA binding of 1A3 and 1A3-VC-PAB-MMAE to cleaved-AREG peptide; details: 0.001-1 μg/mL
T2 construct: host or cells: synthetic peptide
Description: Maxisorp flat bottom 96-well plates (Thermo Fisher Scientific) were coated with 5 μg/mL cleaved-AREG peptide at 4° C. overnight. After washing thrice with PBST (PBS with 0.05% Tween20) and blocking for 2 h at RT with 5% non-fat dry milk in PBST, various concentrations of 1A3 and 1A3-VC-PAB-MMAE (0.001, 0.01, 0.1, 1 μg/mL) were added to the wells and incubated for 2 h at RT. The wells were washed four times with PBST and were incubated at RT with Goat anti-rabbit IgG (H+L) Cross-adsorbed-HRP conjugate secondary Ab (ThermoFisher G-21234) for 1 h. One-Step™ Turbo™ B-ELISA Substrate Solution (Thermo Fisher Scientific) was added to the wells for color development, incubated for 15 min and the reaction was stopped by adding 2 M H2SO4.

MCF7-F xenografts = experiment: Orthotopic MCF7-F endocrine-resistant xenograft in NSG mice; type: in vivo, mouse
Source text: as §1, §2

[2] = biological target: T3, FL AREG (peptide representing uncleaved AREG) (Homo sapiens, UniProt P15514); experiment: Immunoblot of TRF-conjugated AREG peptides, intact cleavage site; type: binding; details: 1 μg/mL antibody, 200 ng TRF-conjugated peptide
T3 construct: a peptide spanning this region (SMKTHSMIDSSLSKIAC); host or cells: synthetic peptide conjugated to transferrin
Description: as §3

[3] = tested on: MCF7-F (fulvestrant-resistant MCF7) breast cancer cells; experiment: MTT cytotoxicity assay; details: 1.56-200 nM, 72 h
Description: as §5

B1: 1A3-MMAE: Monomethyl auristatin E (MMAE) conjugated 1A3 antibody via valine-citrulline p-aminobenzylcarbamate linker (conjugate)
VH: QSVKESEGRLVTPGTPLRLTCTVAGYSLSRYHMCWVRQAPGKGLEWIGMIGGSGRTDYASWAKGRFTISKTSTTVDLKITSPTTEDTATYFCSTVYTDSDGDFWGPGTLVTVSS
VL: AELDMTQTPSSKSVPVGGTVTINCQASESVYSNDRLAWFQQKPGQPPKLLIYYASTLASGVPSRFKGSGSGTQFTLTISDLECADAATYYCQSCYDMSSYGVAFGGGTELEIL
longitudinal luciferase imaging of xenografts (MCF7 xenografts; MCF7, 5 mg/kg): decreased in both volume and signal | xenografts in which tumor volume decreased (maximum response) (MCF7 xenografts; MCF7, 5 mg/kg): 8/10 | xenografts in which tumor volume increased (maximum response) (MCF7 xenografts; MCF7, 5 mg/kg): 2/10 | tumor volume response by caliper measurements (MCF7 xenografts; MCF7, 5 mg/kg i.p. every 4 days, six doses): strong tumor shrinkage | recognition of truncated AREG peptide by immunoblot [1]: specifically recognized | tubulin disruption (microtubule integrity) (MCF-7 cells): exhibited tubulin disruption | clonogenic survival (number of colonies relative to control) (MCF7 cells): dose-dependent effect on survival | clonogenic survival (number of colonies relative to control) (MCF7-F cells): dose-dependent effect on survival | cytotoxicity by MTT assay (MCF7 breast cancer cells): considerable cytotoxicity | binding to cleaved AREG peptide, unconjugated vs MMAE-conjugated (cleaved-AREG peptide): no substantial difference in binding | longitudinal luciferase imaging of xenografts (MCF7-F xenografts; 5 mg/kg): decreased in both volume and signal | tumor volume response by caliper measurements (MCF7-F xenografts; 5 mg/kg i.p. every 4 days, six doses): strong tumor shrinkage | xenografts cleared to sub-detectable levels (MCF7-F xenografts; 5 mg/kg, 10 xenografts): 10 | tumors recurred after follow-up (MCF7-F xenografts; 5 mg/kg, 204-day follow-up period): 10/10 | tumors returned to a size seen prior to treatment (MCF7-F xenografts; 204-day follow-up): only one tumor | re-appearance of a lesion after the end of dosing (representative animal) (MCF7-F xenografts; luciferase imaging): 70 days | reaction with peptide representing uncleaved AREG by immunoblot [2]: did not react | cytotoxicity by MTT assay [3]: considerable cytotoxicity
